According to the DeepSol protein solubility set:

Assay: soluble on expression in E. coli; label from the status in PepcDB or PDB records

Sequence | soluble on expression in E. coli
MGSCCSCLNRDSVPDNHPTKFKVTNVDDEGVELGSGVMELTQSELVLHLHRREAVRWPYLCLRRYGYDSNLFSFESGRRCQTGQGIFAFKCSRAEEIFNLLQDLMQCNSINVMEEPVIITRNSHPAELDLPRAPQPPNALGYTVSSFSNGCPGEGPRFSAPRRLSTSSLRHPSLGEESTHALIAPDEQSHTYVNTPASEDDHRRGRHCLQPLPEGQAPFLPQARGPDQRDPQVFLQPGQVKFVLGPTPARRHMVKCQGLCPSLHDPPHHNNNNEAPSECPAQPKCTYENVTGGLWRGAGWRLSPEEPGWNGLAHRRAALLHYENLPPLPPVWESQAQQLGGEAGDDGDSRDGLTPSSNGFPDGEEDETPLQKPTSTRAAIRSHGSFPVPLTRRRGSPRVFNFDFRRPGPEPPRQLNYIQVELKGWGGDRPKGPQNPSSPQAPMPTTHPARSSDSYAVIDLKKTVAMSNLQRALPRDDGTARKTRHNSTDLPL | soluble
MGSDKIHHHHHHMKEVTLGRGMIPGVVPSLAFRRDVSSIVAKRNPSPSIRASFPVRDLFHALARSAGDSDTHHAARKFLDERLVEVAHLESDLPHDIAALPQWLEQRCARVRSDYRAYLADRHAGQQARYFSCRAHALHFLQSMAPSRMVEGAWLYGFLKHWREARFAPMCRVYLRNLGDGDPGCNQVSLYQKLLDRNGCADWHGLDDQYYVQGAIRLALGHHVDHYLPEIIGFNLGYDQVSLPMLIAAYELSEQGVLPHYFTLHVTEDDAGASSAMKLLGSLLDTADSAKAREMLLHRVNNGYKLHRLGLDIPGIVASFDLQKAFLAVMQPCAAYLERVYRIDCMERGIRGRWTDSLPLPLLLQQLCNEGWMHPDEKGKTRLWQVLERGNLLPAPGYPQQVVVDWSARSDEYGKRLPHTDVADLVPVSPPPARRPEEAEEHWADFNESGSQADLMEHMIRLLSPLAHHTQEGLKAARIYKSILEKGSELYSQHSALFLWHGRV | not soluble
MPSNDIQGLELPQSYFNAAAKRQKYAMKPGLSALEKNAVIKAAYRQIFERDITKAYSQSISYLESQVRNGDISMKEFVRRLAKSPLYRKQFFEPFINSRALELAFRHILGRGPSSREEVQKYFSIVSSGGLPALVDALVDSQEYADYFGEETVPYLRGLGVEALEHHHHHH | soluble
MKVAIIGATGYGGIELIRLLEQHPYFSIASLHSFSQVGECITNVYPHFQNVLVHTLQEIDVEEIEKEAEIVFLATPAGVSAELTPKLLAVGLKVIDLSGDFRMKDPFIYEQWYKRAAAKEGVLREAVYGLSEWKRSEIQKANLIANPGCFATAALLAILPLVRSGIIEEDSIIIDAKSGVSGAGKTPTTMTHFPELYDNLRIYKVNEHQHIPEIEQMLAEWNRETKPITFSTHLIPISRGIMVTLYAKVKREMEIEQLQQLYEEAYEQSAFIRIRMQGEFPSPKEVRGSNYCDMGIAYDERTGRVTIVSVIDNMMKGAAGQAIQNANIVAGLEETTGLQHMPLYL | not soluble
MVQLDRFEILFNNPEQAYFAGQEISGKVIIENKEPKKVNEILLELKGRARTYWTKHSGKSRKHCSHSEPYFLEQFNPGYTHKFTVVKDGKEKERILPAGIHQVPFSYTLPKSLPSSFEGEFGHIRYTCKAICERPWDFDIVSRKAFTVVGIEDINSDPKLNEPATCVESNHAVTFCCRSAGSVTGEIRISKCGYTPGEKIDVSFKVINLSSKTRTTALRFVQQTTYKAKTFAGHEHIKNVVRVISKIDKGEVPGGSTTEWQEESITIPSLPPKLGKCKILSVTYSVELEVEQTLTVPCPIVIGSIPQLSQLLIHSKQSVQSAGNGSLPKSSIKDSPPKWDSESCVQVTITDESGQLVEELGNEMEALLSARKRVRMPSSILSELYPTMPSPYYKESFFGASDISEEKEQAQFGEASFAPKYPFYTD | not soluble
MNVLFLSISLGSGHIRAAEALQKFVVQKYPKSKTLIVDTFKYINPLIHTVVVDGYLNIVKYVPEIYGGLYRMSEHIKNIDRMSRGFSNLLTPKIHRLIQSFKPSIIVCTHPFPLQMIAHLKKHYNLDVPSIAIVTDFVNHPFWFQNNIEAYIVAHDYIKRDMIECGISEDRIFTYGLPVAPEFLKSIPKEQARKELSLENTLTVLLMGGSLGIGDIENTFKSFAKCKRDIQIIAVAGKNTALKKRLDSLAASFPMPVKIFGYTDSIPMLMDASDFIVTKPGAMTISEALVKRLPALIISPIPGQEERNEQFLVNSGTAVRIYKNTKIDSVLCQVYDNKLRYKQMKEIAGNLANPDSGRNILSLIEKLVNDNEKGLFKYSFNAF | soluble
MGSDKIHHHHHHANAAKKDDAKFKPAADRDGPRWRTGIEGQRIADLGDGRFLNPVLSGDYPDPSVLKDGDDYYMTHSSFDSAPGLLIWHSRDLVNWRPLGPALAKPLGTVFAVDIAKHDGRYFIYIPFMKAPWSTDLPSFANTFVIHAPSMEGPWSDPIDLKVGGLIDPGHVVGEDGHRYLFFNDGKRVRLTADGLATDGPVETAYQAWRYPDDWITEAYSPEGPKLFRRGDYFYLVNAVGGTSGPATGHMIVAARSRSIHGPWENCPHNPIQRTHSRQEMWWSRGHATCVEGPGGQWYMVYHGYENGYHTLGRQTLVEPIEWTPDGWFRATGGDLSEPLRKPRGPAQPHGMAHSDSFHTDRLGTLWNLYGSAPAETARIAIGDGALTLKAKGKGPSDGVVLTQQVGDRSYEVSVELELTDKTSGGLLLFFDDRLFLGMGIDGHRMTTWRGGKASYWPEPAPPARRIFMRITNQEQVVTFYYSLDGKNWTRHGVRSEVTGYNANTVDNLLSLRPALYAAGEGEVLFRNFTYRALA | not soluble
MYKYFDAHCHYSYLKKKYEGYLIAAVSMDYQSAMDTFSLKSDNVLVGVGIHPWRVHEEDLTRILSLIIKADFVGEVGLDYRFAKAPKELQIKYFEEQIKAGEGKLINVHALDAWKDAFNILVKNDVKSAIFHWYTGPINLLKDIESAGYFISINPSVSFQKKHQEVLKNVDLKNVLTESDGGYEYRGKLLEPSDIPNAISFMSNFLGIEEYKLVRIISNNFFKAYGVNPVNN | not soluble
MKALNREVIEYFKEHVNPGFLEYRKSVTAGGDYGAVEWQAGSLNTLVDTQGQEFIDCLGGFGIFNVGHRNPVVVSAVQNQLAKQPLHSQELLDPLRAMLAKTLAALTPGKLKYSFFCNSGTESVEAALKLAKAYQSPRGKFTFIATSGAFHGKSLGALSATAKSTFRKPFMPLLPGFRHVPFGNIEAMRTALNECKKTGDDVAAVILEPIQGEGGVILPPPGYLTAVRKLCDEFGALMILDEVQTGMGRTGKMFACEHENVQPDILCLAKALGGGVMPIGATIATEEVFSVLFDNPFLHTTTFGGNPLACAAALATINVLLEQNLPAQAEQKGDMLLDGFRQLAREYPDLVQEARGKGMLMAIEFVDNEIGYNFASEMFRQRVLVAGTLNNAKTIRIEPPLTLTIEQCELVIKAARKALAAMRVSVEEA | not soluble
MGSDKIHHHHHHMSAIAERSKPSEHMPVLPEFTPLERAIINRLQYGLPLTRTPYKDVADELGVSEVTLLKHLQALLDNGTLTRFGPMFHAGEMGGGLTLAAMRIPEQDFANVTEQVNSFPEVAHNYRREHELNMWFVLATETPEGITETIQRIESLTGYTVYNMPKEQEFHVHLHFEV | not soluble
MGSDKIHHHHHHMFSSQKLKERRKKLGLSQAQTADKLGISRPSYFNWEIGKTKPNQKNLDKLAHLLKVDSAYFLSQHDIVEIYTRLNESNKTKTLKYSQYLLEQQDKERNLMKNKRYPYRVYEKLSAGTGYSYFGDGNFDTVFYDEEIDHDFASWIFGDSMEPIFLNGEVALIKQTGFDYDGAIYAIDWDGQTYIKKVYREETGLRLVSLNKKYADKFAPYDENPRIIGLIVGNFIPLEG | not soluble
MRMDLSRIRNFSIIAHVDHGKSTLADRILELTHAVSDREMREQFLDSLELERERGITIKASAVRVTYRAKDGEEYVFHLIDTPGHVDFTYEVSRALAAVEGVLLVVDASQGVEAETLAKFYMALEHGHVIIPVINKIDLPNARPLEVALEVEEVLGLPADEAIFASGKTGEGVEEILEAIVQRIPPPKGDPEAPLKALIFDSVYDAYQGVIPYLRLFEGRVRPGDRIRIYSTGKEFTVDKVGVFTPQGLVATEALEAGEVGWLVAAIRDIHDVQVGDTITLADRPTPSPYPGFRPAKPVVFAGLYPVDSGDYGKLRDALEKLKLNDAALTFEPESSTALGFGFRCGFLGLLHAEIVQERLEREFGLSLIATAPSVVYKVRLKSGEEVEVHNPADLPDPTRIEEILEPYVKLTIFTPEEYVGSLMQLLQEKRGRLVNMNYLPGAQKRVELVYEAPFAEILYDFHDRLKSVSRGYASMDYEQAGYRPGDLVKVNVLVHGEVVDALTFIAHREKAYTMARAIVDKLAEVIPRQLFEVPIQAAIGGKIIARATVKALRKDVLAKCYGGDVTRKKKLLEKQKEGKKRLKAIGKVEVPQEAFLAVLSAGRDEPKG | soluble
MKRFFLFILPVLLVITACKAPEEIVLPDKNLNVADRTIVYKKEPYTGKLVLPKSPRGNEGYMYVKDGHLEGNAEIKNEKDGFLLKYNINAGKFQGELLYKSGDGQLTLNVDKGVILSMQMSNDKEKTEYNFTFTDGLANGVFRHENKKNTAEIVFTDGMAKIENDGNIDVEAKFSINQNTWMITMESFVDGKSYSKTEKFLGINLETIEDIVFSSIEDYKTQK | not soluble
MIEINNLSKRYRNKQIFNHLTMSFDSNRLTVLLGDNGAGKSTLLRMIAGIEKANDGTINYFGEKWNQRQIQNHIGYVPQDIALFEHMTVAENIKFFKSLCKNPINDTTINEYLQQLNFDDTSAKVSTLSGGNKRKINILVGLLGQPRILILDEPTVGIDLKSRHDIHQLLNIMKSKCLIILTTHHLDEVEALADDIKLIGQDPFYQHVLEDKQWTYTYY | not soluble
MEANKYKIGIIGSRDIILPFSMIGFDIFPAYQEQEAINTLRKLAQSDYGVIYITEDIASMILDTIRHYDSQVVPAIILLPTHKQGLNLGLKRIEDNVEKAVGHNILLEHHHHHH | not soluble
GSSGSSGTRTYDREGFKKRAACLCFRSEQEDEVLLVSSSRYPDQWIVPGGGMEPEEEPGGAAVREVYEEAGVKGKLGRLLGIFENQDRKHRTYVYVLTVTEILEDWEDSVNIGRKREWFKVEDAIKVLQCHKPVHAEYLEKLKLG | soluble
MSLAHIRTRETYGTRRLQTELAENGIIVGRDRLARLRKELRLRCKQKRKFRATTNPNHNLPVAPNLLNQTFAPTAPNQVWVADLTYVATQEGWLYLAGIKDVYTCEIVGYAMGERMTKELTGKALFMALRSQRPPAGLIHHSDRGSQYCAYDYRVIQEQSGLKTSMSRKGNCYDNAPMESFWGTLKNESLSHYRFNNRDEAISVIREYIEIFYNRQRRHSRLGNISPAAFRENIIRWLLKKRTNGSVRYCQYTSKVAMIYIEQLELIHKSGDVLYPVKITRKSSGKTAFHLVPFGLNKTHDLLEVEDASEAIRLVIDERHSIRCSTLTATITNKKGKRIKRTGIYSIKGVNIKEYNVREGHHHHHH | not soluble
MVNTLAFEYSYKALIVYCRINNNNFSLVKLKSNLNFSVPKIFNDFVIKNNIDLNQIELIINSCGPGSFTGLRISLSFVKGLALGLSIPFVNISTLDVFANLVENNPSAVVLTFTAGKYFLGNYKNCKLIGKILCFSKKDLFEYLNQIDPNSVLIGNNLEDVCKECNYKFKIIENLSSFGKILTELGVAKYLKNRKGDDILSGPLYIRQSDAEVNFHSLEHHHHHH | not soluble
